Results taken from patent US10253086B2, “CD20 therapies, CD22 therapies, and combination therapies with a CD19 chimeric antigen receptor (CAR)-expressing cell” (Novartis AG, priority 2015, dated 2019).
Blank lines part the entries; values can stand above or below the molecule they belong to.

Tests used:
CD19 and CD22 = experiment: NFAT assay of bispecific CAR19/CAR22 constructs; format: cell-based
Protocol: The bispecific CD19-CD22 and CD22-CD19 constructs described above were tested in an NFAT assay, as described in the Examples below. As controls, an anti-CD19 alone CAR and an anti-CD22 alone CAR were used.

cynomolgus CD123 = experiment: Cross-reactivity of anti-CD123 clones with cynomolgus CD123; format: binding
Excerpt: Their activity was compared against mouse clones 1172 and 1176, comprising the VH and VL domains in a light-to-heavy orientation with a CD8 hinge domain, CD8 transmembrane domain, and 41BB-costimulatory domain. […] 1172 is not.

Raji-Luc and Daudi-Luc = experiment: IFN-gamma and IL-2 secretion by CD22 CAR primary T cells; format: cell-based, human; settings: E:T 10 to 1, 20-hr co-culture
Protocol: CD22 CAR constructs were also tested for the ability to promote secretion of IFN-gamma and IL-2. Briefly, transduced primary T cells from healthy donors expressing the different CD22 CARs were co-cultured with the CD22-positive target cells Raji-Luc and Daudi-Luc as well as the negative control K562-Luc. T cells and target cell were cultured in an effector-to-target cell ratio (E:T) of 10 to 1. Supernatants were harvested after 20-hr co-culture. […] Similar results were observed when Nalm6-Luc, Pfeiffer-Luc, and K562-CD22-Luc, and SEM-Luc cells were tested (data not shown). Minimal IFN-gamma secretion was observed when the K562-Luc negative control cell line was tested (bottom panel).

[1] = molecular target: recombinant human CD22-Fc (Homo sapiens, UniProt P20273); experiment: Surface expression of CD22 CAR in primary human T-cells (Protein-L, rhCD22-Fc); format: cell-based; settings: day 10, flow cytometry
Protocol: Primary human T-cells were activated with anti-CD3/antiCD28 stimulatory beads on day 0, followed by lentiviral transduction of specified CAR constructs on day 1. Cells were expanded in vitro until day, 10 at which point they were analyzed by flow cytometry for surface expression of CAR. Two different approaches were utilized to determine surface expression of CAR: Protein-L-biotin followed by streptavidin-PE, and recombinant human CD22-Fc followed by anti-Fc-alexafluor 488. […] CD22 CAR m971 served as a positive control for binding both Protein-L and hrCD22-Fc, and Isotype CAR with no specificity (anti-gH) served as a positive control for Protein-L. T cells expressing no CAR were used as a negative control.

CD22 = experiment: NFAT assay of CD22 CAR in JNL cells on antigen-coated plates; format: cell-based, human; settings: for antigen binding / activation (RLU) vs m971: with and without m971 scFv competitor
Protocol: Several CD22 CAR constructs were functionally validated in an NFAT assay. Briefly the experiments were performed as follows. A lentiviral vector (pELPS) carrying a nucleic acid, encoding a CD22 CAR with a CD22-binding scFv domain was introduced by electroporation into a Jurkat T cell line modified to express luciferase under the control of an NFAT response element (JNL). The cells were cultured and allowed to express the CAR construct. The electroporated cells were applied to a plate coated with the target antigen (CD22). Detection of luciferase signal in the coated plate was indicative of binding activity of the CD22 CAR to its antigen, leading to activation of the T cells and expression of luciferase.
The results also indicate that the different scFvs compete with m971 to different extents.
FIG. 72 is a graph showing the activation (in RLU) of several CD22 CAR-expressing JNL cells including CD22-57, CD22-58, CD22-59, CD22-60, CD22-61, CD22-62, and CD22-63, the scFv sequences of which are provided herein. Three different target proteins (CD22-FL-Fc, CD22-D567-Fc, and CD22-D67) were used to coat the tissue culture plates; a negative control (Fc) was also included. A mesothelin binding CAR (Meso-G07) was used as a negative control. CD22-12 and CD22-53 were used as positive controls. […] Domain mapping was performed on CD22 binding domains. Three different forms of antigens were used: CD22 full-length with all 7 external domains, Domain567 (in which domains 1-4 were deleted) and Domain67 (in which domains 1-5 were deleted). While not wishing to be bound by theory, it appears that the binding of various CD22 clones maps to the epitopes illustrated in FIG. 75.
Two scFvs, named CD22-64 and CD22-65, were produced by affinity maturation of hCD22-12. CAR constructs containing these scFvs were tested for activity in an NFAT assay as described above. […] The bars in the figure represent, from left to right, CD22 full length-Fc; CD22 D567-Fc; and an Fc only negative control used for coating of the plates.

[2] = system: Raji, SEM, K562-hCD22, Daudi, and Nalm6; experiment: Primary T-cell tumor target killing assay; format: cell-based, human; settings: for target cell killing: CD22 expressing luciferase target cell lines
Excerpt: Primary T-cells activated and transduced as described above were mixed with target cell lines stably expressing luciferase at the ratios indicated (FIG. 20A-20F). […] Untransduced T-cells (UTD) lacked the ability to kill target cell lines.

[3] = system: luciferase-expressing mantle cell line (RL luc); experiment: RL luc mantle cell lymphoma xenograft, CART19 with exogenous IL-7; format: in vivo, NSG mice
Protocol: Next, the effect of exogenous IL-7 treatment on anti-tumor activity of CART19 cells was assessed in a lymphoma animal model. NSG mice were engrafted with a luciferase-expressing mantle cell line (RL luc) on Day 0 (D0), followed by treatment of CART19 cells on Day 6. The NSG mice were divided into groups, where one group received no CART19 cells, a second group received 0.5×10^6 CART19 cells, a third group received 1×10^6 CART19 cells, and a fourth group received 2×10^6 CART19 cells. Tumor size was monitored by measuring the mean bioluminescence of the engrafted tumors over more than 80 days. […] When comparing the tumor burden of mice that received IL-7 treatment to control, before and after IL-7 treatment, tumor reduction in tumor burden was only seen in the mice that had received IL-7 treatment (FIG. 10C).
T cell dynamics following IL-7 treatment in the lymphoma animal model was also examined. Human CART19 cells were not detectable in the blood prior to IL-7 treatment. […] The extent of T cell expansion observed in mice receiving the IL-7 also correlated with tumor response. The mouse with the highest number of T cells detected in the blood at peak expansion during IL-7 treatment (mouse #3815) had the most robust reduction in tumor burden (see FIG. 10B). Moreover, the time of peak expansion correlated with the T cell dose injected as baseline. The number/level CD3-expressing cells in the blood were also measured before and after IL-7 treatment.

B1: CD19-CD22: bispecific scFv tandem fusion CAR, humanized anti-CD19 (104876) and hCD22-2 (protein)
scFv: EIVMTQSPATLSLSPGERATLSCRASQDISKYLNWYQQKPGQAPRLLIYHTSRLHSGIPARFSGSGSGTDYTLTISSLQPEDFAVYFCQQGNTLPYTFGQGTKLEIKGGGGSGGGGSGGGGSQVQLQESGPGLVKPSETLSLTCTVSGVSLPDYGVSWIRQPPGKGLEWIGVIWGSETTYYQSSLKSRVTISKDNSKNQVSLKLSSVTAADTAVYYCAKHYYYGGSYAMDYWGQGTLVTVSSGGGGSGGGGSGGGGSGGGGSEVQLQQSGPGLVKPSQTLSLTCAISGDSVSSNSAAWNWIRQSPSRGLEWLGRTYYRSKWYNDYAVSVKSRITINPDTSKNQFSLQLNSVTPEDTAVYYCARDLGWIAVAGTFDYWGQGTLVTVSSGGGGSGGGGSGGGGSQSALTQPASVSGSPGQSITISCTGTSSDVGGYNYVSWYQQHPGKAPKLMIYDVSKRPSGVSNRFSGSKSGNTASLTISGLQAEDEADYYCSSYTSSSLNHVFGTGTKVTVLT
- activity in NFAT assay (CD19 and CD22): active against their targets

B2: NVS 3: human anti-human CD123 clone expressing CAR123-3 (antibody, V domains shown)
VH: QVQLVQSGAEVKKPGASVKVSCKASGYIFTGYYIHWVRQAPGQGLEWMGWINPNSGGTNYAQKFQGRVTMTRDTSISTAYMELSGLRSDDPAVYYCARDMNILATVPFDIWGQGTLVTVSS
VL: DIQLTQSPSSLSASVGDRVTITCRASQSISSYLNWYQQKPGKAPKLLIYAASSLQSGVPSRFSGSGSGTDFTLTVNSLQPEDFATYYCQQGDSVPLTFGGGTKVEIK
- cross-reactivity against cynomolgus CD123 (cynomolgus CD123): cross-reactive against cynomolgus CD123

B3: NVS 4: human anti-human CD123 clone expressing CAR123-4 (antibody, V domains shown)
VH: QVQLQQSGAEVKKSGASVKVSCKASGYTFTDYYMHWLRQAPGQGLEWMGWINPNSGDTNYAQKFQGRVTLTRDTSISTVYMELSRLRSDDTAVYYCARDMNILATVPFDIWGQGTMVTVSS
VL: DIQMTQSPSSLSASVGDRVTITCRASQSISSYLNWYQQKPGKAPKLLIYAASSLQSGVPSRFSGSGSGTDFTLTISSLQPEDFATYYCQQGDSVPLTFGGGTKVEIK
- cross-reactivity against cynomolgus CD123 (cynomolgus CD123): cross-reactive against cynomolgus CD123

- surface expression of CAR [1]: positive surface expression
B4: CD22-12: human CD22 CAR, parent of CD22-64 and CD22-65 (protein)
scFv: EVQLQQSGPGLVKPSQTLSLTCAISGDSVLSNSDTWNWIRQSPSRGLEWLGRTYHRSTWYDDYASSVRGRVSINVDTSKNQYSLQLNAVTPEDTGVYYCARDRLQDGNSWSDAFDVWGQGTMVTVSSGGGGSGGGGSGGGGSQSALTQPASASGSPGQSVTISCTGTSSDVGGYNYVSWYQQHPGKAPKLMIYDVSNRPSGVSNRFSGSKSGNTASLTISGLQAEDEADYYCSSYTSSSTLYVFGTGTQLTVL
- IFN-gamma secretion (Raji-Luc and Daudi-Luc): induced IFN-gamma secretion
- activity (see Example 25) (CD22): found to have activity
- antigen binding / activation (RLU) vs m971 (CD22): bind the antigen approximately as well as the m971 positive control
- activity in cell killing and cytokine secretion assays (Example 9) [2]: activity comparable to m971
- target cell killing [2]: dose-dependent target cell killing

B5: m971-HL: CD22 (m971-derived) CAR construct that served as positive control (antibody, V domains shown)
VH: QVQLQQSGPGLVKPSQTLSLTCAISGDSVSSNSAAWNWIRQSPSRGLEWLGRTYYRSKWYNDYAVSVKSRITINPDTSKNQFSLQLNSVTPEDTAVYYCAREVTGDLEDAFDIWGQGTMVTV
VL: DIQMTQSPSSLSASVGDRVTITCRASQTIWSYLNWYQQRPGKAPNLLIYAASSLQSGVPSRFSGRGSGTDFTLTISSLQAEDFATYYCQQSYSIPQTFGQGTKLEIK
- IFN-gamma secretion (Raji-Luc and Daudi-Luc): induced IFN-gamma secretion
- target cell killing [2]: dose-dependent target cell killing

B6: IL-7: exogenous recombinant human IL-7 (protein, UniProt P13232 26-177, looked up)
Interleukin-7: DCDIEGKDGKQYESVLMVSIDQLLDSMKEIGSNCLNNEFNFFKRHICDANKEGMFLFRAARKLRQFLKMNSTGDFDLHLLKVSEGTTILLNCTGQVKGRKPAALGEAQPTKSLEENKSLKEQKKLNDLCFLKRLLQEIKTCWNKILMGTKEH
- reduction in tumor burden ([3]; IL-7 200 ng/mouse i.p. three times weekly from Day 85, mice with suboptimal CART19 response): 1-3 log
- CD3-expressing cells in the blood ([3]; after IL-7 treatment vs control mice): significant increase in CD3+ cells
- numbers of T cells in blood ([3]; upon IL-7 treatment): rapid, but variable increase in the numbers of T cells

B7: CD22-53: human CD22 CAR, scFv SEQ ID NO 131 (protein)
scFv: EVQLQQSGPGLVKPSQTLSLTCAISGDSVSSNSAAWNWIRQSPSRGLEWLGRTYYRSKWYSDYAVSVKSRITINPDTSKNQFSLQLNSVTPEDTAVYYCARDPYDFWSGYPDAFDIWGQGTMVTVSSGGGGSGGGGSGGGGSQSALTQPASVSGSPGQSITISCTGTSSDVGGYNYVSWYQQHPGKAPKVIISEVNNRPSGVSHRFSGSKSGNTASLTISGLQAEDEADYFCSSYTSGRTLYVFGTGSKVTVLG
- IFN-gamma secretion (Raji-Luc and Daudi-Luc): induced IFN-gamma secretion
- relative amount of IFN-gamma (Raji-Luc and Daudi-Luc): highest amounts
- antigen binding / activation (RLU) vs m971 (CD22): bind the antigen approximately as well as the m971 positive control
